In experiment [1] the target is T1, cy-IL-36α (cynomolgus monkey IL-36α, K6-F158) (cynomolgus monkey, UniProt Q9UHA7 14-158 (human entry)).
T1 construct: Purification tag cleaved off
T1 chain: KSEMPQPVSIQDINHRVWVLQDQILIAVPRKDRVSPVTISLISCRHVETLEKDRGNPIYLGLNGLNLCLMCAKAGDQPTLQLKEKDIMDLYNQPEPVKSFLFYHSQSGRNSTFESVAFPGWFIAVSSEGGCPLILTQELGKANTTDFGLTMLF
Kind of experiment: ELISA on coated cy- and hu-IL-36α, yeast Fab supernatant; ratio of OD450. As to the method:
(§1) Cell supernatants from yeast clones of interest were tested for binding to human IL-36 by ELISA as described above. To compare the binding of these supernatants to human and cynomolgus monkey IL-36, IL-36 proteins were coated at 2.5 μg/mL on 96-well Nunc MaxiSorp plates (Thermo Fisher) and the plates blocked with 5% goat serum in PBS. Yeast supernatants were diluted 1:1 with PBST containing 1% w/v BSA and added to the ELISA plates for 1-1.5 hours with agitation. Bound Fab was detected by incubating the plates with F(ab′)2-HRP (Jackson ImmunoResearch). The ELISAs were developed for 3-10 minutes by addition of 50 μL/well of tetramethylbenzidine (TMB) microwell peroxidase substrate (Scytek Laboratories, Inc., Logan, Utah, USA) and enzymatic color development was stopped by acidification with 50 µL/well of 2 N H₂SO₄ (Sigma-Aldrich Corporation, St. Louis, Mo., USA). The optical density of the samples at a wavelength of 450 nm (OD450) was analyzed with a SpectraMax i3X plate reader (Molecular Devices LLC, San Jose, Calif., USA). To estimate the relative affinity of each clone for cynomolgus monkey IL-36 and human IL-36 in this assay, a ratio of OD450 (OD450_cyIL-36/OD450_huIL-36) was calculated for each clone and IL-36 cytokine.
Background: An ELISA detects its analyte on a solid surface through an enzyme-linked reagent.

In experiment [2] the target is T2, hu-IL-36α (human IL-36α, N-terminally truncated active form K6-F158) (human, UniProt Q9UHA7 6-158).
T2 construct: Purification tag cleaved off; Biotinylated where captured (SPR, some ELISAs); also called hu-IL-36a
T2 sequence: T1 chain with S2I, E3D, M4T, P7Q, V8G, I24T, V34M, S40A, A74V
Kind of experiment: ELISA, yeast Fab supernatant, anti-Fab-HRP.

For experiment [3], the target named is T3, hu-IL-36γ (human IL-36γ, N-terminally truncated active form S18-D169) (human, UniProt Q9NZH8 18-169).
T3 construct: Purification tag cleaved off; Biotinylated where captured; also called hu-IL-36g
T3 sequence: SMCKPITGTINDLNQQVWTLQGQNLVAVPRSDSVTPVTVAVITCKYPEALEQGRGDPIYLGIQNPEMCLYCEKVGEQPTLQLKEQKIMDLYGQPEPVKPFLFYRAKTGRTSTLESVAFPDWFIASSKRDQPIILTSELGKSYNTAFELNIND
Kind of experiment: ELISA, yeast Fab supernatant, anti-Fab-HRP.

Experiment [4] concerns the target T2, hu-IL-36α (human IL-36α, N-terminally …). Kind of experiment: cell-based or functional assay.
Experiment [5] deals with T3, hu-IL-36γ (human IL-36γ, N-terminally …). Kind of experiment: cell-based or functional assay.
Experiment [6] addresses T4, cy-IL-36γ (cynomolgus monkey IL-36γ, S18-K168) (cynomolgus monkey, UniProt Q9NZH8 18-167 (human entry)).
T4 construct: Purification tag cleaved off
T4 chain: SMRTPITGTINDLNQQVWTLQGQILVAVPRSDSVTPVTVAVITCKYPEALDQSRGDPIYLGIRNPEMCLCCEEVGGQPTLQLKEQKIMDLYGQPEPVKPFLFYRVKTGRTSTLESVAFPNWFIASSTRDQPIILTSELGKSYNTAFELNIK
Kind of experiment: ELISA on coated cy- and hu-IL-36γ, yeast Fab supernatant; ratio of OD450. As to the method:
as §1

The target in experiment [7] is T5, hu-IL-36β (human IL-36β, N-terminally truncated active form R5-E157) (human).
T5 chain: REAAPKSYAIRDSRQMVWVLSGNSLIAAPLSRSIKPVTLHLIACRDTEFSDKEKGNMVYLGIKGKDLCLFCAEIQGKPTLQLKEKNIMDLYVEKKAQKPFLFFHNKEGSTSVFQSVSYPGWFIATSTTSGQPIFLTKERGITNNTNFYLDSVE
Kind of experiment: cell-based or functional assay.

For experiment [8], the target named is T5, hu-IL-36β (human IL-36β, N-terminally …). Kind of experiment: SPR (Biacore 8K), biotinylated hu-IL-36β captured on CAP chip, Fab injected, 37°C. As to the method:
Briefly, a 1:4 dilution of Biotin CAPture Reagent (GE) into HBS-EP buffer (0.01 M HEPES pH 7.4, 0.15 M NaCl, 3 mM EDTA, 0.005% Surfactant P20) was applied to a CAP sensor chip at 2 uL/min flow rate. For kinetics measurements, 6 nM biotinylated human IL-36β was captured at 10 uL/min to achieve ˜50 response units in the second flow cell (FC2). FC1 was kept as a reference. […] The sensorgram was recorded and subject to reference and buffer subtraction before evaluating by BIACORE® 8K Evaluation Software (version 1.1.1.7442). Association rates (kₒₙ) and dissociation rates (koff) were calculated using a simple one-to-one Langmuir binding model.

Experiment [9] shares this target. Kind of experiment: phage competition ELISA: Fab on phage, soluble hu-IL-36β titrated against coated hu-IL-36β. As to the method:
Selected phages with top binding signal were purified to perform phage competition ELISA. The optimal phage concentration was incubated with serially-diluted human IL-36β in ELISA buffer (0.5% BSA and 0.05% TWEEN©20 in PBS) in NUNC F plate for two hours. 80 μl of the mixture was transferred to human IL-36β coated wells for 15 min to capture unbound phage. The plate was washed with wash buffer (0.05% TWEEN©20 in PBS), and HRP-conjugated anti-M13 antibody (Sino biological, Cat #11973-MM05-H-50) was added in ELISA buffer for 30 min. The plate was incubated at room temperature for one hour with agitation, washed six times with wash buffer and developed for 15 minutes by addition of 100 μL/well of 1 Step Turbo™ B substrate (ThermoFisher, Cat #34022). The enzymatic reaction was stopped using 50 μL/well of 2N H₂SO₄. Plates were analyzed using a Perkin Elmer plate reader (Envision 2103 multilabel reader) at 450 nm. The absorbance at 450 nm was plotted as a function of antigen concentration in solution to determine phage IC₅₀. […] Real affinities for purified Fab molecules for the phage variants were also measured using Biacore (method described in detail in section E below).

The target is the same in experiment [10]. Kind of experiment: SPR (Biacore), purified Fab, biotinylated hu-IL-36β captured. (In general: SPR reads the build-up and loss of mass on a sensor chip optically.)
For experiment [11] the target is unchanged. Kind of experiment: cell-based or functional assay.

Numbering of substitutions follows the chain as printed.

B1: mAb5.0 Fab (yeast clone culture supernatant) (Fab, V domains shown)
VH: EVQLLESGGGLVQPGGSLRLSCAASGFTFSTYAMSWVRQAPGKGLEWVSGISGGSGYTYYADSVKGRFTISRDNSKNTLYLQMNSLRAEDTAVYYCARVVTYRDPPASFDYWGQGTLVTVSS
VL: QSVLTQPPSVSGAPGQRVTISCTGSSSNIGAHYDVHWYQQLPGTAPKLLIYGNDNRPSGVPDRFSGSKSGTSASLAITGLQAEDEADYYCQSYDYSLKAYVFGGGTKLTVL
notes: Human Fab secreted by the yeast clone, not purified
Consider B1, for which the “ELISA OD450cyIL-36/OD450hu-IL-36” value worked out at 0.5 ratio in [1] and 1 ratio in experiment [6]. Moreover, the “ELISA OD450” value worked out at 2.05 OD450 in [2] and 2.08 OD450 in experiment [3]. In addition, the “% Inhibition, HEK-Blue IL-36R SEAP reporter assay” value (“% Inhibition” below) in [4] and in experiment [5] was 75% throughout.

B2: mAb3.0 Fab (yeast clone culture supernatant) (Fab, V domains shown)
VH: QLQLQESGPGLVKPSETLSLTCTVSGGSISSTSYYWGWIRQPPGKGLEWIGSIHYSGNTYYNPSLKSRVTISVDTSKNQFSLKLSSVTAADTAVYYCARVHYGGYIPRRFDHWGQGTLVTVSS
VL: B1 VL with H32G, D54T, K98R, A99G
notes: as for B1
As to B2, the figures for the “ELISA OD450cyIL-36/OD450hu-IL-36” value in [1] and in experiment [6] were 0.5 ratio and 1 ratio, respectively. Further, the “ELISA OD450” value was 1.63 OD450 in [2] and 2.11 OD450 in [3]. Besides, the “% Inhibition” value came to 40% in [4] and 64% in experiment [5].

B3: mAb6_2 Fab (Fab, V domains shown)
VH: ELQLQESGPGLVKPSETLSLTCTVSGGSITSSNYYWGWIRQPPGKGLEWIGSIDYTGSTYYNPSLKSRVTISVDTSKNQFSLKLSSVTAADTAVYYCARGKYYETYLGFDVWGQGTLVTVSS
VL: B1 VL with Q1E, K98S, A99G
Consider B3, for which the “IC50, IL-36-stimulated IL-8 secretion by HaCat cells” value (“IC50 … by HaCat cells” below) in [7] amounted to 3.19 nM. In experiment [8], the “apparent Kd (pooled screen)” value was found to be 14.7 nM, the “apparent koff (pooled screen)” value is 0.00128 s⁻¹ and the “apparent kon (pooled screen)” value came out at 87200 M⁻¹ s⁻¹. In addition, the “apparent IC50 (pooled screen)” value in experiment [9] came to 8.57 nM. In addition, the “apparent Kd (pooled screen)” value in [10] is 40.1 nM.

B4: mAb4.0 Fab (yeast clone culture supernatant) (Fab, V domains shown)
VH: QLQLQESGPGLVKPSETLSLTCTVSGGSIGSRSYYWGWIRQPPGKGLEWIGSIHYSGTTYYNPSLKSRVTISVDTSKNQFSLKLSSVTAADTAVYYCARVAPSYPRVFDYWGQGTLVTVSS
VL: B1 VL with H32G, D54R, K98R, A99V
notes: as for B1
On to B4, for which the figures for the “ELISA OD450cyIL-36/OD450hu-IL-36” value in experiment [1] and in [6] were 0.5 ratio and 1.2 ratio, respectively. Besides, the “ELISA OD450” value came to 2.16 OD450 in experiment [2] and 2.3 OD450 in experiment [3]. For the same molecule, the figures for the “% Inhibition” value in experiment [4] and in experiment [5] were 91% and 57%, respectively.

B5: mAb6_2.2 Fab (Fab, V domains shown)
VH: B3 VH with Y34A, Y60A, R99H
VL: B1 VL with Q1E, K98S, A99G
notes: Purified Fab (Biacore, HaCat assay)
By IC50 is commonly meant the concentration that inhibits the measured activity by half. What is called Kd is the concentration at which binding is half-saturated. With B5, in [7], the “IC50 … by HaCat cells” value is 2.22 nM. The same molecule registered an IC50 in experiment [9] of 1.04 nM. Further, the Kd in experiment [10] stood at 2.55 nM.

B6: mAb6_2.1 Fab (Fab, V domains shown)
VH: B3 VH with S32T, S52N, P63A, R99T
VL: B1 VL with Q1E, K98S, A99G
notes: as for B5
On to B6, for which, in experiment [7], the “IC50 … by HaCat cells” value amounted to 1.64 nM. Moreover, in [9], the IC50 was 0.77 nM. Also, in [10], the Kd was determined as 3.5 nM.

B7: mAb2.0 Fab (yeast clone culture supernatant) (Fab, V domains shown)
VH: B2 VH with S31T, T32S, H54Y, S56T, H101R, G104V, Y105G, I106V, R109Y, H112P
VL: B1 VL with K98S, A99G
notes: as for B1
With B7, the “ELISA OD450cyIL-36/OD450hu-IL-36” value came to 0.7 ratio in experiment [1] and 1.2 ratio in experiment [6]. The results for the “ELISA OD450” value in experiment [2] and in experiment [3] were 2.53 OD450 and 2.5 OD450, respectively. Further, the “% Inhibition” value in experiment [4] is 91%; in experiment [5], 89%.

B8: mAb6_2.3 Fab (Fab, V domains shown)
VH: B3 VH with S31A, P63T, R99T
VL: B1 VL with Q1E, K98S, A99G
notes: as for B5
In the case of B8, the “IC50 … by HaCat cells” value in [7] was found to be 1.31 nM. The 50% inhibitory concentration (IC50) in [9] worked out at 0.49 nM. This molecule also had a dissociation constant (Kd) in [10] of 1.62 nM.

B9: mAb6_2.4 Fab (Fab, V domains shown)
VH: B3 VH with S31A, R99T
VL: B1 VL with Q1E, K98S, A99G
notes: Purified Fab
Take B9: the “IC50 … by HaCat cells” value in experiment [7] was determined as 0.13 nM. Moreover, the dissociation constant (Kd) in experiment [10] is 1.05 nM.

B10: mAb7.0 recombinant human IgG1 (antibody, V domains shown)
VH: QVQLVESGGGVVQPGRSLRLSCAASGFTFSSYGMHWVRQAPGKGLEWVAVISYGGSERYYADSVKGRFTISRDNSKNTLYLQMNSLRAEDTAVYYCAREPWYSSRGWTGYGFDVWGQGTLVTVSS
VL: EIVLTQSPGTLSLSPGERATLSCRASQSVSSNYLAWYQQKPGQAPKLLIYSASSLQSGVPSRFSGSGSGTDFTLTISSLQPEDFATYYCQQTYSYPPTFGQGTKVEIK
For the molecule B10, the “IC50, HEK-Blue IL-36R SEAP reporter assay” value in experiment [11] is 1.4 nM.
